Laboratory results published in publication PMC3271085, “Enhancement of Chemokine Function as an Immunomodulatory Strategy Employed by Human Herpesviruses” (PLoS Pathogens, 2012).

B1: human CXCL9 (ligand)
chain: TPVVRKGRCSCISTNQGTIHLQSLKDLKQFAPSPSCEKIEIIATLKNGVQTCLNPDSADVKELIKKWEKQVSQKKKQKNGKKHQKKKVLKVRKSQRSRQKKTT
notes: also called hCXCL9; source: commercially available (Protocol S2)
B2: human CXCL11 (ligand)
chain: FPMFKRGRCLCIGPGVKAVKVADIEKASIMYPSNNCDKIEVIITLKENKGQRCLNPKSKQARLIIKKVERKNF
notes: also called hCXCL11; source: commercially available (Protocol S2)
B3: human CCL18 (ligand)
chain: AQVGTNKELCCLVYTSWQIPQKFIVDYSETSPQCPKPGVILLTKRGRQICADPNKKWVQKYISDLKLNA
notes: also called hCCL18; source: commercially available (Protocol S2)
B4: human CXCL13 (ligand)
chain: VLEVYYTSLRCRCVQESSVFIPRRFIDRIQILPRGNGCPRKEIIVWKKNKSIVCVDPQAEWIQRMMEVLRKRSSSTLPVPVFKRKIP
notes: also called hCXCL13; source: commercially available (Protocol S2)
B5: human CXCL14 (ligand)
chain: SKCKCSRKGPKIRYSDVKKLEMKPKYPHCEEKMVIITTKSVSRYRGQEHCLHPKLQSTKRFIKWYNAWNEKRRVYEE
notes: also called hCXCL14; source: commercially available (Protocol S2)
B6: human CCL22 (ligand)
chain: GPYGANMEDSVCCRDYVRYRLPLRVVKHFYWTSDSCPRPGVVLLTFRDKEICADPRVPWVKMILNKLSQ
B7: human CCL28 (ligand)
chain: SEAILPIASSCCTEVSHHISRRLLERVNMCRIQRADGDCDLAAVILHVKRRRICVSPHNHTVKQWMKVQAAKKNGKGNVCHRKKHHGKRNSNRAHQGKHETYGHKTPY
notes: also called hCCL28; source: commercially available (Protocol S2)

These molecules were tested against soluble, secreted form of HSV-2 glycoprotein G (SgG2) (herpes simplex virus type 2) (UniProt P13290) (assay: SPR; Biacore X; SgG1 or SgG2 amine-coupled to CM5 chips (dialysed against acetate buffer pH 5.0 for SgG1, pH 5.5 for SgG2); chemokines injected; screening at 100 nM and kinetic conditions as in ref. 16; Biaevaluation 3.2).
Chain of soluble, secreted form of HSV-2 glycoprotein G (SgG2) (herpes simplex virus type 2) (P13290 23-699): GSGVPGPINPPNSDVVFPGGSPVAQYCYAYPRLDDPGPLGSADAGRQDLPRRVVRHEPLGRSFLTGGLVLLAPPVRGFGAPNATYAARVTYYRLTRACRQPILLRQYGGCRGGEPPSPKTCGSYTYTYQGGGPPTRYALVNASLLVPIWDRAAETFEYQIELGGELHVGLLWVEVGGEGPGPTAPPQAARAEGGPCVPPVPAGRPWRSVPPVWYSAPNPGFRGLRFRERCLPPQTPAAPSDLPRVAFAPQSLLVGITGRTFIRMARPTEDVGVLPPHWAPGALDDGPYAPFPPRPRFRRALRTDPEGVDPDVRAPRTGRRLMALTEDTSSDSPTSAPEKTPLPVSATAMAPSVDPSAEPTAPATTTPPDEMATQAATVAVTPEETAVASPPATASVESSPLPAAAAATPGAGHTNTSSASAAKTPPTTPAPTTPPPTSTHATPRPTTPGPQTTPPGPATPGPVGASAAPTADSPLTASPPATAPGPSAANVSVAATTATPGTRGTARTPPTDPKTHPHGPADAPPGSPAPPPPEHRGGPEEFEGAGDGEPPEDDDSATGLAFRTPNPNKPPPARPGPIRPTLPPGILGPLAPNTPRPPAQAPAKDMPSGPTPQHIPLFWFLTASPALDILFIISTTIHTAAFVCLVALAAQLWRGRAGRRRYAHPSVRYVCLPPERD

Point of comparison: B3, Kd 28 nM. Against it:
- human CCL25 (from UniProt O15444 24-150) (ligand) — 18-fold lower, 1.6 nM
- human CXCL12β (from UniProt P48061 22-93) (ligand) — 13-fold lower, 2.2 nM
- human CCL26 (from UniProt Q9Y258 24-94) (ligand) — 16-fold lower, 1.72 nM
- human CXCL10 (from UniProt P02778 22-98) (ligand) — 5.1-fold lower, 5.5 nM
- B1 — 2.3-fold lower, 12.3 nM
- B2 — 4.7-fold lower, 6 nM
- B4 — 6.5-fold lower, 4.3 nM
- B5 — 6.5-fold lower, 4.3 nM
- B6 — 5.4-fold lower, 5.22 nM
- B7 — 8.8-fold lower, 3.2 nM
